Here are results for 10 molecules from PMC4694050 (Journal of the American Chemical Society, 2015).

Numbering of substitutions follows the chain as printed. In names and notes the source's numbering stands.

Series [1] has as its system Triosephosphate Isomerase from Yeast. Format: biochemical, Saccharomyces cerevisiae. The note with it: for GAP kcat: 30 mM triethanolamine pH 7.5, 25 °C.
The test system is the same in series [2]. The series is classed as biochemical, Saccharomyces cerevisiae. As to conditions: isomerization of DHAP; pH 7.5, 25 °C, I = 0.1 (NaCl).
In series [3] the target is T1, Triosephosphate Isomerase from Yeast (Saccharomyces cerevisiae, UniProt P00942, Y208F).
T1 sequence (P00942 2-248 Y208F): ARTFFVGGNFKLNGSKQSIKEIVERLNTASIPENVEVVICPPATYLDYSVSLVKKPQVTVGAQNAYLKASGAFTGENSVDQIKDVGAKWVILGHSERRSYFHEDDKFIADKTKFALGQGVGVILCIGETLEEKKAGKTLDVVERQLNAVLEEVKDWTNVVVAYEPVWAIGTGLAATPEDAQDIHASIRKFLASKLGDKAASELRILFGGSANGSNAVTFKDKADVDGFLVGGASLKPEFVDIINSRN
Format: biochemical.

Series [4] has as its system yTIM. Format: biochemical, Saccharomyces cerevisiae. As to conditions: unactivated deprotonation of glycolaldehyde.
The target of series [5] is T1, Triosephosphate Isomerase from Yeast. The note with it: isomerization of [l-^2H]-dihydroxyacetone phosphate; cited from earlier work.
Series [6] relates to ketosteroid isomerase (KSI) from Pseudomonas putida. As to conditions: cited from earlier work.
The test system of series [7] is TIM from chicken muscle. The note with it: chicken muscle TIM loop replacement mutant; pH 7.5, 25 °C; cited from earlier work.
For series [8], the system named is TIM from chicken muscle. The note with it: chicken muscle TIM loop replacement mutant; pH 7.5, 25 °C; cited from earlier work. This is another data set of the same source.
Series [9] deals with TIM from chicken muscle. The note with it: cited from earlier work.
Setting [10] is: isomerization of GAP, I = 0.1 (NaCl).

B1: S211G (protein, UniProt P00942 2-248, looked up, variant S211G)
Triosephosphate isomerase: T1 sequence (P00942 2-248 Y208F) with F207Y, S210G
Take B1: in [1] (S211G greater than S211A), the “activity relative to S211A TIM” value is given as 20 fold. In [1] (setting [10]), the GAP kcat was 7500 ± 500 s^–1. Also, the DHAP kcat in series [2] turned out to be 810 ± 10 s^–1.

B2: Y208T (protein, UniProt P00942 2-248, looked up, variant Y208T)
Triosephosphate isomerase: T1 sequence (P00942 2-248 Y208F) with F207T
In [1] (setting [10]), B2 had a GAP kcat of 3700 ± 50 s^–1. The DHAP kcat in series [2] came out at 580 ± 10 s^–1.

B3: Y208A (protein, UniProt P00942 2-248, looked up, variant Y208A)
Triosephosphate isomerase: T1 sequence (P00942 2-248 Y208F) with F207A
In the case of B3, in [1] (setting [10]), the GAP kcat was 740 ± 10 s^–1. Moreover, the DHAP kcat in series [2] is listed as 210 ± 5 s^–1.

B4: Y208T/S211G (protein, UniProt P00942 2-248, looked up, variant Y208T S211G)
Triosephosphate isomerase: T1 sequence (P00942 2-248 Y208F) with F207T, S210G
On to B4, for which the GAP kcat in series [1] (setting [10]) is recorded as 520 ± 30 s^–1. The “GAP kcat/Km (upper value)” value in series [1] (isomerization of GAP, pH 7.5, 25 °C, I = 0.1 (NaCl), calculated for total concentration of GAP) is given as “(7.3 ± 0.8) × 10^5 M^–1 s^–1”. Besides, in series [1] (isomerization of GAP, pH 7.5, 25 °C, calculated for the reactive carbonyl form, 4% of total GAP), the “GAP kcat/Km (lower value)” value is on record as 1.8 × 10^7 M^–1 s^–1. Besides, in series [2], the DHAP kcat worked out at 135 ± 5 s^–1 and the “DHAP kcat/Km” value is listed as “(3.4 ± 0.2) × 10^4 M^–1 s^–1”.

B5: Y208S (protein, UniProt P00942 2-248, looked up, variant Y208S)
Triosephosphate isomerase: T1 sequence (P00942 2-248 Y208F) with F207S
B5 returned a GAP kcat in [1] (setting [10]) of 940 ± 30 s^–1. In [2], the DHAP kcat came out at 250 ± 5 s^–1.

B6: Y208F: Y208F loop 7 mutant of yeast triosephosphate isomerase (protein, UniProt P00942 2-248, looked up, variant Y208F)
Triosephosphate isomerase: T1 sequence (P00942 2-248 Y208F)
In the case of B6, the “reduction in kcat implied by deviation from Figure 7 correlation” value in series [3] (kcat for GAP vs Kd^⧧ correlation) was determined as 40 fold. The “negative deviation from the correlation in Figure 7” value in [3] (log kcat for GAP vs intrinsic dianion binding energy) came to 1.6 log unit. The “reduction in enzyme activity compared to the Y208A and Y208S mutants” value in [1] was “ca. 50 fold”. In addition, the GAP kcat in series [1] (setting [10]) came out at 13 ± 1 s^–1. In [2], the DHAP kcat is 4.5 ± 0.3 s^–1. In [4], the “decrease in (kcat/Km)E compared with wildtype” value amounted to 20 fold. In addition, the “primary deuterium kinetic isotope effect kH/kD on kcat/Km” value in [5] is given as 6.

B7: wildtype: wildtype triosephosphate isomerase from Saccharomyces cerevisiae (yTIM) (protein, UniProt P00942 2-248, looked up)
Triosephosphate isomerase: T1 sequence (P00942 2-248 Y208F) with F207Y
B7 registered a GAP kcat in [1] (setting [10]) of 8900 ± 700 s^–1. Also, in series [2], the DHAP kcat came to 860 ± 10 s^–1.

B8: S211A (protein, UniProt P00942 2-248, looked up, variant S211A)
Triosephosphate isomerase: T1 sequence (P00942 2-248 Y208F) with F207Y, S210A
In turn, B8 had a GAP kcat in series [1] (setting [10]) of 2800 ± 100 s^–1. Moreover, the DHAP kcat result in series [2] was “linear plot”. The “decrease in (kcat/Km)E compared with wildtype” value in series [4] came to 30 fold.

B9: Y16F: Y16F mutant of ketosteroid isomerase (KSI) from Pseudomonas putida (protein, UniProt P07445 1-131, looked up, variant Y16F)
Steroid Delta-isomerase: MNLPTAQEVQGLMARFIELVDVGDIEAIVQMYADDATVEDPFGQPPIHGREQIAAFYRQGLGGGKVRACLTGPVRASHNGCGAMPFRVEMVWNGQPCALDVIDVMRFDEHGRIQTMQAYWSEVNLSVREPQ
Regarding B9, in series [6], the falloff in activity is 5000 fold; the “falloff in activity (decrease in kcat/Km) relative to that for Y16A, Y16G, Y16S and Y16T mutants” value was “ca. 100 fold”.

B10: 208-TGAG for 208-YGGS (LRM): 208-TGAG for 208-YGGS loop 7 replacement mutation of TIM from chicken muscle (protein, UniProt P00940 2-248, looked up, variant Y208T G210A S211G)
Triosephosphate isomerase: APRKFFVGGNWKMNGDKKSLGELIHTLNGAKLSADTEVVCGAPSIYLDFARQKLDAKIGVAAQNCYKVPKGAFTGEISPAMIKDIGAAWVILGHSERRHVFGESDELIGQKVAHALAEGLGVIACIGEKLDEREAGITEKVVFEQTKAIADNVKDWSKVVLAYEPVWAIGTGKTATPQQAQEVHEKLRGWLKSHVSDAVAQSTRIITGAGVTGGNCKELASQHDVDGFLVGGASLKPEFVDIINAKH
Take B10: in [7], the GAP kcat is 16 s^–1. Besides, in series [8], the DHAP kcat is 8.0 s^–1. The “(kcat/Km)E•HPi/Kd” value in series [9] (chicken muscle TIM loop replacement mutant, third-order rate constant) is reported as 95 M^–2 s^–1. In addition, in [9] (chicken muscle TIM), the “effect of mutation on [(kcat/Km)E]obs: KC” value is “no change”.
